Results taken from the DeepSol protein solubility set.

test: soluble on expression in E. coli; label from the status in PepcDB or PDB records

Sequence	soluble on expression in E. coli
MGSDKIHHHHHHMFKKYDAYLVGYYGMQNSGDDALMYATAWAAKNILGCNNTKVGLYGDYARETQSDNQLPLKFTQQFPGQNRLLHYKTAIQSKRIIFGGGSVLHSESDINLKRQLMSLANQKKSLAVGIGIGPFNSVMAEKSCAKFLNECGYVGVRDNASLAIARNIAPHANVHKTFDLAPLLLCSKQYKPSNRERQGIALTLCSVAIDAMGNTDELEEEKRVEQFVQLITKIYARTGEPITLIEFNGHNVLGDWKINNNIITRLLDKYIPVSIKKYDPNPIALLNKLSGYKAIVSMRLHGSILGYLANTPVLSINYHSKCKGWCDEVGMPEDYKIDLFNLNIEKIVSQIALGVSTTFQQPTLSINNALKNSLSNWSTQNEQFKFYRNYSTV	not soluble
MARLNVNPTRMELSRLKKQLTTATRGHKLLKDKQDELMRRFIALVKENNELRIQVEQEVTDALSNFVLANATLNEAFIEELVAIPAEKVELEIIEQNILSVPVPKMIFDYDESVQEAPLDYGYVNSNSELDQAFAKISSILPKLLALANVEKTCQLLSKEIEKTRRRVNALEYMTIPQLEETIYYIQMKLEENERGEITRLIKIKSMNKENLEHHHHHH	not soluble
MENFQPHKQCGYGVIMRLTSKGRYAVTAMLDVALHSQQNPVPLADISERQGISLSYLEQLFSKLRKAGLVASVRGPGGGYRLGMDSYAISIGTVIAAVDESVDATKCNGKGDCQGGTRCLTHTLWRDLSSRITDFLNNITLGELMMDNEVLEVSDRQDLHLAVSQRVSQNNSNTVTIGAAPFGINVRS	not soluble
MLNYTGLENKNVLVVGLAKSGYEAAKLLSKLGANVTVNDGKDLSQDAHAKDLESMGISVVSGSHPLTLLDNNPIIVKNPGIPYTVSIIDEAVKRGLKILTEVELSYLISEAPIIAVTGTNGKTTVTSLIGDMFKKSRLTGRLSGNIGYVASKVAQEVKPTDYLVTELSSFQLLGIEKYKPHIAIITNIYSAHLDYHENLENYQNAKKQIYKNQTEEDYLICNYHQRQVIESEELKAKTLYFSTQQEVDGIYIKDGFIVYKGVRIINTEDLVLPGEHNLENILAAVLACILAGVPIKAIIDSLTTFSGIEHRLQYVGTNRTNKYYNDSKATNTLATQFALNSFNQPIIWLCGGLDRGNEFDELIPYMENVRAMVVFGQTKAKFAKLGNSQGKSVIEANNVEDAVDKVQDIIEPNDVVLLSPACASWDQYSTFEERGEKFIERFRAHLPSY	not soluble
MGHHHHHHSHMANSAGSMANSAGSMHLVVESFPSYRDVTLFEGKRVSFYKRAQILVADTWSVLEGKGDGCFKDISSITMFADYRLPQVLAHLGALKYSDDLLKKLLKGEMLSYGDRQEVEIRGCSLWCVELIRDCLLELIEQKGEKPNGEINSILLDYYLWDYAHDHREDMKGIPFHRIRCIYY	not soluble
GPVDNNNNNGLKNSTEPIYAKVNKKKTGQVASPEEPIYTQVAKKVNAKIDRLNQIASGLGGVGQAAGFPLKRHDKVDDLSKVGLSASPEPIYATIDDLGGPFPLKRHDKVDDLSKVGRSRNQELA	soluble
MSLRERNQVIPVLPPQERPRPTVVFDCEDFLVKKRFSFFNLDFLVTGRAFADLFLFHAAHIYELVHVSGSPGSFSRLLLHRIDPYGCISYKVYCKDKKTFSSEHLNRPLQRVMVVSTRENEYHKDFDGNTIKLERWSGDPEHGLLDLLNFLHSLHFMGIKDFRGTLRSYLGEGHHHHHH	not soluble
MGSDKIHHHHHHMQIVPLHSSHYPHIASVFHQAVRAAAGKGYTQAQCEAWSRGVRDRRYWRSRLGRSLVLVALNVDEVVGFIDCELEHPDKGYIGHLYVAPTHQGRGIGGKLLDALIRQAPALGIGSLTTDASLHSEPLFAAKGFSNVGRYFQQKSGQVLPGFAMTLPLPFYIDRMQGSDLASIARLFHEAVQGASEYYSEAERHAWSAALRDEATWQGKLAPSKVWVARKDSGIMGFINLLPKSIGEAEIDCLFTSPVLTRCGVATSLYWVLEQQARRDGVRRLSVEASYFARPFFQSRGFTELSRNEHPRHGQILVNFSMEKWLSRPEGG	not soluble
MGSDKIHHHHHHMALPSLNGMRAFEAAARLGSIKDAAEELHLTPSAISRHIRALERNLGQDLFERGFRQITPTIRGSYYARSLSEAFEAIWRATDDVSLADGPSHGRTQRVRVLCVPAVLNLWLADRLPNFRRLHPAVELEISTSGKRANFDLAIVDEFVYKAGPALTLLIPLVLTPVCAPSLLDGPVPLRSPADLVNHHLIHECESMRWKRWLEQEGVLDTTPKSSTTLDDCTLIMREAINGAGIALADTMMAQDFLQQGKLVAPFPARHTYPAGIYLHQRRSIGNKPGTGLFQDWLLSEVEDHKRVMAIA	not soluble
MGSDKIHHHHHHMLAGGKMGDMKITRHIHACVEISQGNDRIIIDPGTFGAPDLCGATILVTHNHADHVDPELLKPGMTIYAPRSVAHSIPVECHIVEHGRNFTVGSLSVEVLGSEHAMLTHSMPIAENVGYLINGRVLHPGDTFQPIKDVELALVPVNGPWVKMLDVEGYLKKFPPKRFIGIHDGIVNDRGLAINKKFLTHLGETYGSEYSPLEEGESLEI	not soluble
MAVTKSSSLLIVGAGTWGTSTALHLARRGYTNVTVLDPYPVPSAISAGNDVNKVISSGQYSNNKDEIEVNEILAEEAFNGWKNDPLFKPYYHDTGLLMSACSQEGLDRLGVRVRPGEDPNLVELTRPEQFRKLAPEGVLQGDFPGWKGYFARSGAGWAHARNALVAAAREAQRMGVKFVTGTPQGRVVTLIFENNDVKGAVTADGKIWRAERTFLCAGASAGQFLDFKNQLRPTAWTLVHIALKPEERALYKNIPVIFNIERGFFFEPDEERGEIKICDEHPGYTNMVQSADGTMMSIPFEKTQIPKEAETRVRALLKETMPQLADRPFSFARICWCADTANREFLIDRHPQYHSLVLGCGASGRGFKYLPSIGNLIVDAMEGKVPQKIHELIKWNPDIAANRNWRDTLGRFGGPNRVMDFHDVKEWTNVQYRDISKL	soluble
ATDATSLATDKDKLSYSIGADLGKNFKNQGIDVNPEAMAKGMQDAMSGAQLALTEQQMKDVLNKFQKDLMAKRTAEFNKKADENKVKGEAFLTENKNKPGVVVLPSGLQYKVINSGNGVKPGKSDTVTVEYTGRLIDGTVFDSTEKTGKPATFQVSQVIPGWTEALQLMPAGSTWEIYVPSGLAYGPRSVGGPIGPNETLIFKIHLISVKKSS	soluble
MAVAALKALLPPERLRRLTPLGGFEARVYTDGERVYKVYRKEEAHLAGLEARRMARAGFGSLVLAVIQGAEGGVLVTRRFPGRPFAPEAFTSKTLAALSHLFLALHRLPEPGKVTQEELLSRLERFAESLHDQPEALSLVQALKREVGLAAGVERRFCHRDAWAGNLLLKAPEAEGPEVFLVDWARAGGDDPARDLALLKTGSLDLLGEEAARAALFRMARLYPKEVRERLAFYVPLTYLHDLHWFRTKEPQGFPQALEEKLPKALAFFRDFFPRRGAW	soluble
MLKVDKVFPWETFRGKLESPYSKKPKWDVILLLKVLLIKFVYEISWLEGEIRDSKMFMKFLGGKVHQKSILLLQETVVDEGERMWTTLMTQQGLRQGDLEHHHHHH	not soluble
MSMENFAQLLEESFTLQEMNPGEVITAEVVAIDQNFVTVNAGLKSESLIDVAEFKNAQGEIEVKVGDFVTVTIESVENGFGETKLSREKAKRAADWIALEEAMENGDILSGIINGKVKGGLTVMISSIRAFLPGSLVDVRPVKDTSHFEGKEIEFKVIKLDKKRNNVVVSRRAVLEATLGEERKALLENLQEGSVIKGIVKNITDYGAFVDLGGIDGLLHITDLAWRRVKHPSEVLEVGQEVEAKVLKFDQEKQRVSLGMKQLGEDPWSGLTRRYPQGTRLFGKVSNLTDYGAFVEIEQGIEGLVHVSEMDWTNKNVHPSKVVQLGDEVEVMILEIDEGRRRISLGMKQCQANPWEEFAANHNKGDKISGAVKSITDFGVFVGLPGGIDGLVHLSDLSWTESGEEAVRKYKKGEEVEAVVLAIDVEKERISLGIKQLEGDPFGNFISVNDKGSLVKGSVKSVDAKGAVIALSDEVEGYLPASEFAADRVEDLTTKLKEGDEVEAVIVTVDRKNRSIKLSVKAKDAKESREALNSVNAAANANAGTTSLGDLLKAKLSGEQELEHHHHHH	soluble
GSQITGTCPSGCSGDCYPECPPGCCGQVNLN	soluble
